Measured values published in patent WO2005085862A1 (dated 2005).

Target: T1, human Glucose-regulated protein 78 (Grp78) (human, UniProt P11021 19-654)
T1 construct: whole, on cells; also called Grp78/Bip; cell surface localized Grp78
Test: western blot of whole cell extracts with purified scFv

T1 sequence (P11021 19-654): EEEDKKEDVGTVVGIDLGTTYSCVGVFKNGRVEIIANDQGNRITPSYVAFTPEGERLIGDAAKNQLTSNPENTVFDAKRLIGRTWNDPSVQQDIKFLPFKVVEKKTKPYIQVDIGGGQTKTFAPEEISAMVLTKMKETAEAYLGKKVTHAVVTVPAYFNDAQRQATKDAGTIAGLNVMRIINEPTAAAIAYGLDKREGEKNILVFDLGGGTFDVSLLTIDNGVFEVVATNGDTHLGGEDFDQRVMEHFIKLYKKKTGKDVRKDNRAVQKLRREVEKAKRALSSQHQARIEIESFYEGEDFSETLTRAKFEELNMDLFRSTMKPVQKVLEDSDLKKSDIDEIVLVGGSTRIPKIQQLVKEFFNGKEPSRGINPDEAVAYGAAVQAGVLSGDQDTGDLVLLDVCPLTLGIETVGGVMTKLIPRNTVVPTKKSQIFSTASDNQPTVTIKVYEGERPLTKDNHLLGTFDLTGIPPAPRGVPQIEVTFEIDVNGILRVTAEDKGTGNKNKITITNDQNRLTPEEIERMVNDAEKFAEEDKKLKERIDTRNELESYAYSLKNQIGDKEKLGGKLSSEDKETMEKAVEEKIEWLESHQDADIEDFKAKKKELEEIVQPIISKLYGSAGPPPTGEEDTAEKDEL

B1: Grp78-scFv clone-19 (scFv)
scFv: EVQLVESGGGVVQPGRSLRLSCAASGFTFSSYGMHWVRQAPGKGLEWVAVISYDGSNKYYADSVKGRFTISRDNSKNTLYLQMNSLRAEDTAVYYCARKINSTKEVWGQGTLVTVSSGGGGSGGGGSGGSALQSVLTQPPSASGTPGQRVTISCSGSSSNIGSNYVYWYQQLPGTAPKLLIYRNNQRPSGVPDRFSGSKSGTSASLAISGLRSEDEADYYCAAWDDSLNPLVVFGGGTKLTVLGAAAHHHHHHGAAEQN
notes: Tested as soluble scFv made in E. coli HB2151 and purified on a Ni column, apparent size about 29 kDa; It was detected through its c-myc tag with mAb 9E10; also called anti-Grp78 scFv-19; scFv-19
Q: Does B1 bind?
A: binds
